Substitutions are numbered along the chain they refer to.
B1: S2H7 (antibody, V domains shown)
VH: QVQLLQSGGGVVQPGRSLRLSCAASGFTFSSYGMHWVRQAPGKGLEWVAVISYDGSNKYYADSVKGRFTISRDNSKNTLYLQMNSLRAEDTAVYYCATRYENYFSTWGQGTLVTVSS
VL: EIVLTQSPGTLSLSPGERATLSCRASQSVSSNYLAWYQQKPGQAPRLLIYGASSRPTGIPDRFSGSGSGTDFTLTISRLEPEDFAVYYCQQYAASPLTFGGGTKLEIK
B2: S2H1 (antibody, V domains shown)
VH: B1 VH with T98S, R99L, T106L
VL: B1 VL
B3: S2H2 (antibody, V domains shown)
VH: B1 VH with R99F, Y100R, S105E, T106Y
VL: B1 VL
B4: S2H3 (antibody, V domains shown)
VH: B1 VH with T98G, R99V, Y100R, S105T, T106Y
VL: B1 VL
B5: S2H5 (antibody, V domains shown)
VH: B1 VH with T98S, T106L
VL: B1 VL

Target: leptin receptor on reporter cells (SIE-luciferase reporter cells; Ba/F3-lepR reporter cells), P48357
Assay: cell-based or functional assay

leptin receptor on reporter cells (SIE-luciferase reporter cells; Ba/F3-lepR reporter cells), P48357, sequence (P48357 22-1165): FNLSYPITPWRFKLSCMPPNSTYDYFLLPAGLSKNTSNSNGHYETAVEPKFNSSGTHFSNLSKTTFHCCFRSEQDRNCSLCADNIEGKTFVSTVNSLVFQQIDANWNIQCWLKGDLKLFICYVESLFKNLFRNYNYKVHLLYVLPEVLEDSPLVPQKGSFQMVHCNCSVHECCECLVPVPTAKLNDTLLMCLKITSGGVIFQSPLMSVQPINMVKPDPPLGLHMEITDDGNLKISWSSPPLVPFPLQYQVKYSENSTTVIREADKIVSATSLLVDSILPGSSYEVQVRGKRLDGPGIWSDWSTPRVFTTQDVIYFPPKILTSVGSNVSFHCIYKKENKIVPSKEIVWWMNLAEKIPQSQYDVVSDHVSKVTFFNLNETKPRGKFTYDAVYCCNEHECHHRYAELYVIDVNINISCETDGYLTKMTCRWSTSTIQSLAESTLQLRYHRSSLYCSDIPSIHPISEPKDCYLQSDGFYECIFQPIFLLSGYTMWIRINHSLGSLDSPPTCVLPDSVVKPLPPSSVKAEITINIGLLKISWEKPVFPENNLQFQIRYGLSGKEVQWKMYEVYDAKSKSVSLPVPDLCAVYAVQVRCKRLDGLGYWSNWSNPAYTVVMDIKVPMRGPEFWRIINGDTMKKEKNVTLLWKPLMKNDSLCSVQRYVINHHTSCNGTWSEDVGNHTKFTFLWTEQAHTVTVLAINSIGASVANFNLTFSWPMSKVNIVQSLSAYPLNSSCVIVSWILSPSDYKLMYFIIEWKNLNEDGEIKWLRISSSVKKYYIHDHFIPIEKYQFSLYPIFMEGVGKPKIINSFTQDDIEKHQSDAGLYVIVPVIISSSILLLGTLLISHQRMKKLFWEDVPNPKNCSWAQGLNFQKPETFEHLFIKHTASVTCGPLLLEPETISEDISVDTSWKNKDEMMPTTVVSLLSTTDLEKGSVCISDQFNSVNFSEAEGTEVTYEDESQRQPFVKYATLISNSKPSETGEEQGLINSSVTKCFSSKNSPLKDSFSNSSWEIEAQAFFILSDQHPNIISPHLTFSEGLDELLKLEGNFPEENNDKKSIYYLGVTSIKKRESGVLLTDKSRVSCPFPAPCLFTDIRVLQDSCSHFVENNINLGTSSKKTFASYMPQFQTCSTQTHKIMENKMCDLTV

Binder	EC50(M), Cell proliferation assay (Ba/F3-lepR)	EC50(M), Luciferase assay	EC50, SIE-luciferase reporter assay
B1	1.15e-09 M	4.94e-10 M	0.494 nM
B2	4.19e-10 M	4.53e-10 M	0.453 nM
B3	6.87e-10 M	6.52e-10 M	0.652 nM
B4	1.93e-10 M	3.28e-10 M	0.328 nM
B5	1.63e-09 M	7.38e-10 M	0.738 nM
